The supplement of paper PMC10724198
± gives the standard deviation of the averaged measurements.

Test system: Saccharomyces cerevisiae
Experiment: protein stability index of tFT-peptide fusion (C-terminal peptide) (PSI (0-1 scale)); higher = more stable (slower turnover)
Conditions: genetic background: wild type; temperature: 30 C
Procedure: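 Multiplexed protein stability (MPS) profiling in S. cerevisiae. Random 12-aa peptides (tFT-X12 library) are fused to the C-terminus of a sfGFP-mCherry tandem fluorescent timer, after mCherry and a GGGS linker. Cells are FACS-sorted into 8 mCherry/sfGFP bins and deep-sequenced. The protein stability index (PSI) is the read-weighted bin average, scaled from 0 (unstable) to 1 (stable). Only peptides with >10 reads are reported; cells were grown at 30 °C in SC-His with glucose.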
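Further: PSI is a weighted mean of sequencing reads over stability bins, variants kept only with over 10 reads, mCherry proximal and sfGFP distal, peptide attached via GGGS linker.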

| Sequence | protein stability index |
| --- | --- |
| CSFFNSFPVFWL | 0.7 ± 0.014 |
| CSGRDLSLSMAD | 0.744 ± 0.13 |
| CSHPHPSSNLPS | 0.683 ± 0.045 |
| CSKERAPGPSSG | 0.705 ± 0.075 |
| CSLRVSADPLLT | 0.7315 ± 0.0071 |
| CSNGRKFKKDDA | 0.682 ± 0.059 |
| CSPLIISDATSR | 0.713 ± 0.082 |
| CSRGRNSDNNLI | 0.631 ± 0.043 |
| CSSLPSRPLLPH | 0.7209 ± 0.0062 |
| CSSSALADLLPW | 0.6537 ± 0.0022 |
| CSSSLLDSPPAL | 0.703 ± 0.048 |
| CSTYPLFPTLPP | 0.693 ± 0.049 |
| CTFSGLLEMAGR | 0.7253 ± 0.0024 |
| CTGSRPPPDCAV | 0.646 ± 0.019 |
| CTHCAGVLLHTL | 0.636 ± 0.044 |
| CTKKNGYNGKNT | 0.652 ± 0.025 |
| CVARRPSLIGRN | 0.655 ± 0.027 |
| CVCLGCGGAFAG | 0.696 ± 0.019 |
| CVFAPLFYNVYA | 0.585 ± 0.019 |
| CVGILGAVKSGM | 0.71 ± 0.098 |
| CVIIDFTLCSVI | 0.682 ± 0.14 |
| CVLVVGGPAGGG | 0.575 ± 0.063 |
| CVMDKEYGYAIK | 0.729 ± 0.0094 |
| CVPFFSSSSPLI | 0.812 ± 0.037 |
| CVPLGCDWRGLI | 0.6418 ± 0.0058 |
| CVQGDGLSFYVL | 0.737 ± 0.07 |

| Sequence | protein stability index |
| --- | --- |
| CVSALVADDLVS | 0.674 ± 0.029 |
| CVWSGHIWDLLF | 0.764 ± 0.016 |
| CYGVGTVGLRRG | 0.712 ± 0.048 |
| CYGYTESKNRLD | 0.6524 ± 0.0046 |
| CYKKRKKTNNYE | 0.653 ± 0.02 |
| CYLGSGFLFFLL | 0.5209 ± 0.00091 |
| CYRLFPLSSFIP | 0.689 ± 0.085 |
| DAKPNMATGLSI | 0.703 ± 0.027 |
| DAWPPVRTVVIN | 0.656 ± 0.071 |
| DCAVNYVGRRRR | 0.702 ± 0.057 |
| DDGQWVGFCGWT | 0.749 ± 0.039 |
| DDQLACSHDIDS | 0.643 ± 0.019 |
| DDQYVGRYYNKT | 0.676 ± 0.019 |
| DEANFHGCYYGV | 0.647 ± 0.041 |
| DESRVYLSIALL | 0.623 ± 0.035 |
| DFLSLPPISPLL | 0.787 ± 0.15 |
| DFYSLAWHFWFL | 0.69 ± 0.073 |
| DGCGFIGLSLLE | 0.731 ± 0.079 |
| DGCSWRSGLVWL | 0.69506 ± 0.00062 |
| DGELFPDEPFYL | 0.801 ± 0.049 |
| DGGVGRALEHGE | 0.652 ± 0.0083 |
| DGLQNACVFMSG | 0.6906 ± 0.0025 |
| DGPALWPRSVVD | 0.684 ± 0.1 |
| DGQNPVAFGSHG | 0.691 ± 0.057 |
| DGVRCCTKWTCA | 0.679 ± 0.013 |
| DGWSEAGQGGKG | 0.679 ± 0.034 |

| Sequence | protein stability index |
| --- | --- |
| DHKKNKIKKKKE | 0.685 ± 0.097 |
| DHLVLSGPPPPV | 0.733 ± 0.056 |
| DHRELPRSRIGT | 0.673 ± 0.015 |
| DICFTPGVVNAS | 0.6587 ± 0.0038 |
| DIEKRNKRGVCV | 0.714 ± 0.058 |
| DIKAISVKYTIQ | 0.6127 ± 0.0056 |
| DILACAPCRRGP | 0.704 ± 0.022 |
| DKGWRTRKVKDE | 0.632 ± 0.03 |
| DKPRKVLPNENS | 0.6871 ± 0.0017 |
| DKRRSMSGGNMD | 0.68 ± 0.024 |
| DKSYKTYSVKGQ | 0.6707 ± 0.0018 |
| DLARSLVQSLSG | 0.675 ± 0.017 |
| DLEDPAETPNIF | 0.72 ± 0.033 |
| DLGWGRWYVVVG | 0.678 ± 0.0083 |
| DLHFAVVFPISR | 0.733 ± 0.013 |
| DLKIKKNDKKKK | 0.658 ± 0.0086 |
| DLLPGAGRDSRL | 0.775 ± 0.21 |
| DLSRSPAPPAPL | 0.6706 ± 0.0014 |
| DLVQFATEILMI | 0.612 ± 0.0064 |
| DLVSVVGRGIVL | 0.675 ± 0.026 |
| DLYVADNCPNSP | 0.662 ± 0.1 |
| DMAPNSQKGRAL | 0.668 ± 0.028 |
| DPAIHPNYKVAG | 0.701 ± 0.053 |
| DPHINARERTPL | 0.814 ± 0.2 |
| DPPHPPPSPLPA | 0.699 ± 0.02 |
| DPRVLPPPPRLP | 0.637 ± 0.02 |

| Sequence | protein stability index |
| --- | --- |
| DPTPLKSLVTRP | 0.64 ± 0.04 |
| DPTVIKNQTWFG | 0.722 ± 0.05 |
| DQGMSDVYPDCW | 0.662 ± 0.011 |
| DQSYPTPPSRID | 0.721 ± 0.01 |
| DQTKMKKIAKVE | 0.655 ± 0.044 |
| DRASLAGPRSLP | 0.692 ± 0.032 |
| DRNKINYYKGGI | 0.694 ± 0.031 |
| DRPSTNPISNVG | 0.699 ± 0.015 |
| DRPYTEILEFRL | 0.834 ± 0.14 |
| DRTITPSSVISL | 0.705 ± 0.047 |
| DRVGGDWMERGG | 0.719 ± 0.036 |
| DRVLRGAIWVSV | 0.571 ± 0.045 |
| DSFAIFFDWPAC | 0.695 ± 0.0092 |
| DSFPAGVLVQSK | 0.664 ± 0.017 |
| DSGVGLARSARG | 0.678 ± 0.018 |
| DSHEEGVSVAPA | 0.749 ± 0.034 |
| DSSPGSHPPHRG | 0.736 ± 0.053 |
| DSSPSPYPRPPP | 0.729 ± 0.054 |
| DSVGGVLGRGAR | 0.633 ± 0.022 |
| DSVYYVYRSTRV | 0.679 ± 0.044 |
| DSWMKRPNKGQE | 0.698 ± 0.058 |
| DSYELGICCSSS | 0.6678 ± 0.0019 |
| DTPIGMPLNVTR | 0.691 ± 0.061 |
| DVFCRPRCFRRG | 0.686 ± 0.041 |
| DVGGRGAGGGSA | 0.672 ± 0.0076 |
| DVHGETRGYGIQ | 0.665 ± 0.019 |

| Sequence | protein stability index |
| --- | --- |
| DVLFFSALKAHR | 0.6881 ± 0.003 |
| DVLGCHRCLGFC | 0.699 ± 0.021 |
| DVNSNYNVGEQR | 0.64 ± 0.012 |
| DVRTLGTRVMGW | 0.6769 ± 0.0057 |
| DVVDGCGGRYGW | 0.687 ± 0.029 |
| DVVLFQLGSELV | 0.712 ± 0.013 |
| DVYMWVVPNFTD | 0.729 ± 0.037 |
| DWAGGKMESVYR | 0.66 ± 0.011 |
| DYHPPRRMKEAG | 0.625 ± 0.028 |
| DYHWPFIRTATE | 0.774 ± 0.027 |
| EAHGQQESRCEQ | 0.7 ± 0.055 |
| EATCSPCPTRVV | 0.621 ± 0.012 |
| EATIVGLSYRTL | 0.617 ± 0.032 |
| ECGLRAAKPVWI | 0.702 ± 0.063 |
| ECPLPPCPPLST | 0.68 ± 0.0098 |
| ECVRWFKNTDRL | 0.721 ± 0.032 |
| EDLVREKRKCEK | 0.694 ± 0.043 |
| EEEAETRHSMVY | 0.738 ± 0.041 |
| EEEQGPSENEKT | 0.9714 ± 0.0082 |
| EEHWDCEYVAFH | 0.719 ± 0.015 |
| EEMMEWKKREEK | 0.6596 ± 0.0009 |
| EEREKKWKGKGK | 0.718 ± 0.035 |
| EETRLQEVNRIL | 0.737 ± 0.033 |
| EETTSNLGLKVN | 0.5617 ± 0.0014 |
| EFKLINLETQRC | 0.706 ± 0.017 |
| EFMRHAFTPLPT | 0.733 ± 0.041 |

| Sequence | protein stability index |
| --- | --- |
| EFPPPPSSRSCA | 0.712 ± 0.013 |
| EFRWVASGDLLS | 0.749 ± 0.017 |
| EGDGQGWGGQGG | 0.702 ± 0.03 |
| EGDGQVWGGQGG | 0.644 ± 0.0078 |
| EGDKGGGEQKRQ | 0.688 ± 0.031 |
| EGDRLVKEVGEE | 0.654 ± 0.12 |
| EGEGAGRWCGRG | 0.66 ± 0.051 |
| EGEVGGRWCGRG | 0.676 ± 0.046 |
| EGGAGGGVWGLG | 0.819 ± 0.11 |
| EGGFGSVLGGRG | 0.724 ± 0.058 |
| EGGTGCLAMSVG | 0.7 ± 0.012 |
| EGIDFVDQRLLS | 0.663 ± 0.005 |
| EGLTYIPCQTDC | 0.812 ± 0.028 |
| EGRRAGRVGTQV | 0.688 ± 0.024 |
| EGSEAYQWETLG | 0.681 ± 0.038 |
| EGSLHLHLSLST | 0.66 ± 0.029 |
| EGSVGRRGHCVR | 0.6959 ± 0.0055 |
| EGTPLTIQRIGE | 0.666 ± 0.094 |
| EGWRWEGGVWEG | 0.676 ± 0.022 |
| EGYGPSVRYRRS | 0.639 ± 0.084 |
| EIHKDSNTENIK | 0.663 ± 0.0031 |
| EIKKKKSQTKKT | 0.67 ± 0.085 |
| EITKVKDNEKIN | 0.686 ± 0.12 |
| EKGRGGIGSRGK | 0.768 ± 0.064 |
| EKKIDPTVKEGK | 0.663 ± 0.0094 |
